This test deals with human C1q (R&D Systems) (human) (UniProt P02745). Description: C1q ELISA, absorbance at 450 nm. A general note: In an ELISA, binding on a coated surface is turned into a signal by an enzyme label.

This is an account of results in patent US20090053246A1.

UniProt P02745, sequence (P02745 23-245 limits assumed, chain 1 of 3): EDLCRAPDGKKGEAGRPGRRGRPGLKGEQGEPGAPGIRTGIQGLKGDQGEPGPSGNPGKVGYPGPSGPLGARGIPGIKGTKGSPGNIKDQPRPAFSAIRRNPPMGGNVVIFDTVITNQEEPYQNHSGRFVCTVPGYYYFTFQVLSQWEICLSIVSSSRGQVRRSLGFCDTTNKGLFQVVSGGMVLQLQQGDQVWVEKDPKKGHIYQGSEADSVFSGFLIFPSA
UniProt P02745, sequence (P02746 28-253 limits assumed, chain 2 of 3, further chain): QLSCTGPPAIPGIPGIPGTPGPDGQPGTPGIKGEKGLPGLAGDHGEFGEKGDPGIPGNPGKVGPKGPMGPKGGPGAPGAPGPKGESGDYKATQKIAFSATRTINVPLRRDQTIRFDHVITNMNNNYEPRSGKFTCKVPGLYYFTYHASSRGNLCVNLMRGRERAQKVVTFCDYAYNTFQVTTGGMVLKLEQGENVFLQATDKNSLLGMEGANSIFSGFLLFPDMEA
UniProt P02745, sequence (P02747 29-245 limits assumed, chain 3 of 3, further chain): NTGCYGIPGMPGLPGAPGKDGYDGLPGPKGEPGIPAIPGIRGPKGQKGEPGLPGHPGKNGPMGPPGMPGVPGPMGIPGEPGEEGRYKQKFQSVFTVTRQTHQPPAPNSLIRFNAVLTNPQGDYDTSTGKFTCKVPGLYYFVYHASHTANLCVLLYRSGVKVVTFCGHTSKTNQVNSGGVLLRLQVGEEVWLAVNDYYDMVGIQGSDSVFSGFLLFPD

“dCysG1Fc (recombinant aglycosylated IgG1 Fc derivative, twelve amino acid deletion at the amino terminus of the native hinge region) (from UniProt P01857 111-330)”: the fold reduction of complement activity (C1q ELISA) against the glycosylated Fc fragment worked out at 2 times.
